# From patent US10724009B2, “Cannabichromenic acid synthase from Cannabis sativa” (priority 2014, dated 2020)
# Values joined by “and” are separate entries in the source; they are usually repeats but may differ in a detail not shown here. Equal entries are not always repeated.
# B1: recombinant CBCAS: Cannabis sativa cannabichromenic acid synthase (SEQ ID NO:2) expressed in Pichia pastoris with alpha-factor signal peptide (protein)
# chain: MNCSTFSFWFVCKIIFFFLSFNIQISIANPQENFLKCFSEYIPNNPANPKFIYTQHDQLYMSVLNSTIQNLRFTSDTTPKPLVIVTPSNVSHIQASILCSKKVGLQIRTRSGGHDAEGLSYISQVPFAIVDLRNMHTVKVDIHSQTAWVEAGATLGEVYYWINEMNENFSFPGGYCPTVGVGGHFSGGGYGALMRNYGLAADNIIDAHLVNVDGKVLDRKSMGEDLFWAIRGGGGENFGIIAACKIKLVVVPSKATIFSVKKNMEIHGLVKLFNKWQNIAYKYDKDLMLTTHFRTRNITDNHGKNKTTVHGYFSSIFLGGVDSLVDLMNKSFPELGIKKTDCKELSWIDTTIFYSGVVNYNTANFKKEILLDRSAGKKTAFSIKLDYVKKLIPETAMVKILEKLYEEEVGVGMYVLYPYGGIMDEISESAIPFPHRAGIMYELWYTATWEKQEDNEKHINWVRSVYNFTTPYVSQNPRLAYLNYRDLDLGKTNPESPNNYTQARIWGEKYFGKNFNRLVKVKTKADPNNFFRNEQSIPPLPPRHH
# modifications: alpha-factor signal peptide; Cannabis Sativa
# What was measured:
# [1] = system: mouse tetrad model; conditions: at high concentrations (DeLong et al., 2011); cited from earlier work
# [2] = molecular target: T1, recombinant CBCAS (Cannabis sativa, UniProt Q33DQ2, H543R/W244C); assay: CBCAS assay: conversion of CBGA to CBCA, products analysed by HPLC/LCMS; assay type: biochemical; conditions: for inhibition of recombinant CBCAS by additive: FIG. 4, effect of additive on CBCA production, high concentrations; for formation of CBCA from CBGA: recombinant enzyme expressed in Pichia pastoris, CBGA incubated 14 h
# T1 construct: alpha-factor signal peptide (vector encoded) (N); made in house; host or cells: Pichia pastoris strain X33
# Protocol: FIG. 4 depicts optimal conditions for CBCAS activity. […] Values are expressed as a fraction of CBCA produced (CBCA A265 nm/(CBGA A265 nm+CBCA A265 nm)*100).
# Reactions using media were performed by incubating 10 μmols CBGA in 500 μL of clarified culture media for 14 h. Reactions using hydroxyl-apatite fractions were performed with 100 μL of the fraction incubated with 10 nmols of CBGA for 14 h. Completed reactions were acidified with one drop of 4 N HCl and extracted twice with 400 μL of acetonitrile. After centrifugation, the organic phases were pooled and evaporated to dryness. Products were resuspended in 20 μL of 50% methanol, of which 10 μL was analyzed by LCMS. Products were separated with a Waters Alliance HPLC using a binary solvent system (solvent A: 10% acetonitrile, 0.05% formic acid; solvent B: 99.95% acetonitrile, 0.05% formic acid) and an Ascnetis C18 5 cm×2.1 mm 2.7 μm column (Sigma). Initial conditions: 55% A at 0.25 mL/min. Ramp to 5% A from 0-8 min, hold at 5% A for 2.5 min, return to initial conditions over 2 min and equilibrate at initial conditions for 7 min. Ultraviolet spectra were obtained using photodiode array detection at 200-350 nm.
molecule,measurement,setting,value
"CCCCCc1cc(O)c2c(c1)OC(C)(CCC=C(C)C)C=C2 (stereo not drawn) [CBC, cannabichromene]",THC-like activity in a mouse tetrad model,[1],shows THC-like activity
"C[S+](C)[O-] [DMSO, reference compound]",inhibition of recombinant CBCAS by additive,[2],inhibited by high concentrations
Triton X-100 [reference compound],inhibition of recombinant CBCAS by additive,[2],inhibited by high concentrations
B1,temperature of maximal activity,"[2]; 35, 40, 45 and 50° C. tested",40 °C
same,pH optimum,"[2]; FIG. 4, effect of buffer and buffer pH on CBCA production",5.5
same,temperature optimum,"[2]; FIG. 4, effect of incubation temperature on CBCA production",40 degrees
same,pH of maximal activity,[2]; pH 3.5 to 7 tested,5 and 5.5
same,formation of CBCA from CBGA,[2],catalyzed the formation of CBCA from CBGA
same,formation of CBCA from CBGA,[2]; listed as CBCAS,produces CBCA
